Data as given in US8232101B2, “Identification of antigenic peptides from multiple myeloma cells” (Janssen Pharmaceutica N.V., priority 2009, dated 2012).

Molecular target: T1, HLA-A2 molecules in T2 cells (Homo sapiens, UniProt P04439, D140Y/D185E/D98H/E176V/E277Q/G131W/G231S/I119V/I121R/I166T/I218V/L300P/L318F/N151K/N90K/P208A/P217A/Q86G/Q94H/R138H/R169H/T345S)
T1 construct: HLA-A2 molecules that are synthesized in a transporter associated with antigen processing (TAP)-deficient cell line, T2; host or cells: T2 cells (TAP-deficient human cell line)
Experiment: HLA-A2 Stabilization Assay (peptide binding, T2 cells, flow cytometry)
Set-up: key: Strong (S); Median (M); Weak (W); None (N)
Conditions: truncated versions of P3, P13, P14
Description: The assay for peptide binding to class I major histocompatibility complex (MHC/HLA-A2) molecules is based on the ability of peptides to stabilize MHC class I, HLA-A2 molecules that are synthesized in a transporter associated with antigen processing (TAP)-deficient cell line, T2 (ATCC® Number: CRL-1992). The extent of stabilization of MHC class I molecules is directly related to the binding affinity of the added peptides (Townsend et al., Cell. 1990 Jul. 27; 62(2):285-95; Andersen et al., Tissue Antigens. 1999 August; 54(2):185-90).
For the assay, T2 cells were plated in 96-well V-bottom plates, 100 ul/well RPMI media, at a density of 1×10^6 cells/ml, with final peptide concentrations of 200 uM, 20 uM, 2 uM, 200 nM, 20 nM, 2 nM, and no peptide as negative control. The cells with peptides were incubated for 18 hours at 26° C., 5% CO2. After 18 hours, the plates were transferred to 37° C., 5% CO2 and incubated for an additional 3 hours. The cells in plate were washed once with FACS buffer (PBS, 2.5% FCS, 1% NaN3) and then stained by adding 1 ul/well FITC-labeled mouse anti-human HLA-A2 antibody (BD Pharmingen, Cat. No. 551285), 1 ul/well PI, and then incubating at 4° C. for 30 minutes. After staining, cells were resuspended in 200 ul of FACS buffer and transferred from 96-well plates to racks of 96 microtubes. Samples were run on a FACScan flow cytometer and the data were analysed by using CellQuest software.
A peptide of Hepatitis B Core protein (HBC) was used as a positive control. The Hepatitis B Core peptide is a potent HLA-A2.1 epitope and consists of residue numbers 18-27 of the core sequence, amino acids […] (SEQ ID NO:73) (Zhang et al. Immunology. 2007, 121(1):105-12).

Substance | HLA-A2 Binding
SLVLNLLE (listed as Homo sapiens) [Peptide P3-4] | N
TLIDLP (listed as Homo sapiens) [Peptide P14-10] | N
LIDLPGITRV (listed as Homo sapiens) [Peptide P14-1] | N
TLIDLPGIT (listed as Homo sapiens) [Peptide P14-7] | N
TLIDLPG (listed as Homo sapiens) [Peptide P14-9] | N
TLVDLPGMT (listed as Homo sapiens) [Peptide P13-7] | N
TLIDLPGITR (listed as Homo sapiens) [Peptide P14-6] | N
LNLLEL (listed as Homo sapiens) [Peptide P3-3] | N
VDLPGMT (listed as Homo sapiens) [Peptide P13-14] | N
SLVLNL (listed as Homo sapiens) [Peptide P3-6] | N
VDLPGMTK (listed as Homo sapiens) [Peptide P13-12] | N
LVDLPGMTKV (listed as Homo sapiens) [Peptide P13-1] | N
DLPGITR (listed as Homo sapiens) [Peptide P14-17] | N
TLVDLPG (listed as Homo sapiens) [Peptide P13-9] | N
